Experimental data published in patent publication US20240343800A1 (Merck KGaA, published 2024).

Columns and labels:
[1] = target: T1, human ROR2 (on recombinant cell lines) (human, UniProt Q01974 34-943); assay: flow cytometry on recombinant cell lines; confirmed by standard ELISA
T1 construct: whole, on cells

[2] = target: T2, human Fc-Frizzled-Kringle fusion protein (human Fc fused to the Frizzled and Kringle domains of human ROR1) (human); assay: yeast surface display sorting
T2 construct: Entry is printed with a leader; also called huFc-frz-KNG
T2 sequence (chain, as listed by the source limits assumed): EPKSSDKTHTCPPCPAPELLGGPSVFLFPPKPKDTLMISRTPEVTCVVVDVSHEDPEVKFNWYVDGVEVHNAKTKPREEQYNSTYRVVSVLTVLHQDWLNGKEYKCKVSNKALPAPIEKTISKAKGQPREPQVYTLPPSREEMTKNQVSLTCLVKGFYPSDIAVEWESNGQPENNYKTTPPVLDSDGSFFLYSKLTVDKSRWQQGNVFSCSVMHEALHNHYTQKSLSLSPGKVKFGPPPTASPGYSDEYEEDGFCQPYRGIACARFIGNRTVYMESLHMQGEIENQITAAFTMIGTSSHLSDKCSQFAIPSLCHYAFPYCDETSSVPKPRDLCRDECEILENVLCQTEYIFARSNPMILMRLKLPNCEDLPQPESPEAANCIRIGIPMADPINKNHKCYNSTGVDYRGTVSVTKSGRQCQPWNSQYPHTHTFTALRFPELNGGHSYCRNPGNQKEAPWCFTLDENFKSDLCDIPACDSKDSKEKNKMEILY

[3] = target: T3, human ROR1 (on cells) (human, UniProt Q01973 30-937); assay: flow cytometry, ROR1+ MDA-MB-231 cells
T3 construct: Entry given with its signal peptide; also called hROR1; huROR1
Description: (§1) After 15-minutes of incubation at room temperature, the cells were washed twice with 200 μL of PBS by centrifugation at 500×g for 5 minutes at room temperature and resuspended in […] of 10% goat serum in BD staining buffer (BD Biosciences, Cat No: 554657). […] The plates were then covered with foil to avoid direct light and incubated for 60 minutes at 4° C. […] After incubating for 30 minutes at 4° C., the cells were washed twice with 200 μL of PBS by centrifugation at 500×g for 5 minutes at room temperature and resuspended into 100 μL of fixation buffer (BioLegend, Cat No: 420801). The samples were then analyzed on a flow cytometer for binding signal using FlowJo software. ROR and CD3 binding EC₅₀s (concentration vs mean fluorescence intensity (MFI)) for reference molecules and test bispecific TCEs were obtained using 4-parameter non-linear regression curve fitting in GraphPad Prism.

[4] = target: T3, human ROR1 (on cells); assay: flow cytometry, MDA-MB-231 cells; reference: 82H02 TCE #4
[5] = target: T4, human CD3 (on Jurkat T cells or human CD8+ T cells) (human, UniProt P07766 23-207; P09693 23-182; P04234 22-171; P20963 22-164); assay: flow cytometry, human CD8+ T cells
T4 construct: Entries are printed with signal peptides; also called huCD3; CD3ε
T4 sequence (P07766 23-207 limits assumed, chain 1 of 4): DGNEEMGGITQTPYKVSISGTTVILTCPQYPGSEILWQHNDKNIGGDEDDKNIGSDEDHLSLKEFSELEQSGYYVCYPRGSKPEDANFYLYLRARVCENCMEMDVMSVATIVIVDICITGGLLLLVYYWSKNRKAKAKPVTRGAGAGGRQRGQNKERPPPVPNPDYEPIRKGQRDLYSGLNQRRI
T4 sequence (P09693 23-182 limits assumed, chain 2 of 4): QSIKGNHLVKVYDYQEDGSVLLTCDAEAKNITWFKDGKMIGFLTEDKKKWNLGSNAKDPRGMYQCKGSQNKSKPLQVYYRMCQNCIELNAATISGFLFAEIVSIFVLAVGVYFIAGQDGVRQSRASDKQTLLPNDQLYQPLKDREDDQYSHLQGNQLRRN
T4 sequence (P04234 22-171 limits assumed, chain 3 of 4): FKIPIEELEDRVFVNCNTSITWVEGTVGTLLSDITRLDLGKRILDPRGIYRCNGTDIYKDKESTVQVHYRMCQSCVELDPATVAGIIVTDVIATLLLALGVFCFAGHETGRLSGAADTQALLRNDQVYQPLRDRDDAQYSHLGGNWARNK
T4 sequence (P20963 22-164 limits assumed, chain 4 of 4): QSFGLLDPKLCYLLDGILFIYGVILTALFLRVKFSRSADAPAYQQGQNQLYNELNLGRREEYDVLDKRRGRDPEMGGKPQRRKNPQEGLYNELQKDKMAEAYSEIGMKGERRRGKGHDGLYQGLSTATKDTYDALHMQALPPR
How it was run: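 Cells stained with test and reference bispecific TCEs, incubated 60 min at 4 °C protected from light, then 30 min at 4 °C further staining, washed and fixed before flow cytometry. Binding EC₅₀ from concentration vs MFI by 4-parameter non-linear regression.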

[6] = target: T5, cynomolgus CD3 (on cynomolgus pan-T cells) (cynomolgus, UniProt Q95LI5 22-198); assay: flow cytometry, cynomolgus pan-T cells
T5 construct: whole, on cells
T5 sequence (Q95LI5 22-198): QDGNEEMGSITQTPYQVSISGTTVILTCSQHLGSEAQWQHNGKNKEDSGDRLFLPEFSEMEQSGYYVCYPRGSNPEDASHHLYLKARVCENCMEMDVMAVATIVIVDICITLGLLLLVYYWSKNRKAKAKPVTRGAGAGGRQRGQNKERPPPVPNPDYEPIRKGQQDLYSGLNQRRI
Description: as §1

[7] = target: T3, human ROR1 (on cells); assay: cell-based or functional assay
[8] = target: T3, human ROR1 (on cells); assay: cell-based or functional assay; remark: listed apart in the source
[9] = target: T3, human ROR1 (on cells); assay: cell-based or functional assay; remark: listed apart in the source
[10] = target: T3, human ROR1 (on cells); assay: cell-based or functional assay; remark: listed apart in the source
[11] = target: T6, mouse ROR1 (on 4T1 cells engineered to overexpress it) (mouse, UniProt Q9Z139 30-937); assay: flow cytometry, 4T1-muROR1 cells; reference: 82H02 TCE #4
T6 construct: whole, on cells; also called muROR1; mROR1
Description: as §1

[12] = target: T6, mouse ROR1 (on 4T1 cells engineered to …); assay: flow cytometry; reference: human ROR1 on MDA-MB-231 cells
[13] = target: T6, mouse ROR1 (on 4T1 cells engineered to …); assay: flow cytometry, 4T1 cells overexpressing mouse ROR1
Description: as §1

B1: Clone 82H02 (from a Fab yeast surface display library of immunized transgenic rats) (Fab, V domains shown)
VH: EVQLLESGGGLVQPGGSLRLSCAASGFTFTSYAMSWVRQAPGKGLEWVSTISGSGGGTYYTDSVKGRFTISRDNSKNTLYLQMNSLRAEDTAVYYCAQGSSIFDYWGQGTLVTVSS
VL: EIVLTQSPATLSLSPGERATLSCRASQSVSSYLAWYQQKPGQAPRLLIYDASNRATGIPARFSGSGSGTDFTLTISSLEPEDFAVYYCQQRSNWPPCTFGQGTRLEIK
binding result [1]: no binding
binding result [2]: no binding

B2: 82H02 TCE #3 (sequence optimized 82H02 bispecific TCE in Format 1A, low ROR1 / high CD3 affinity) (bispecific antibody)
heavy 1: EVQLVESGGGLVQPGGSLKLSCAASGFTFNTYAMNWVRQASGKGLEWVGRIRSKYNNYATYYADSVKGRFTISRDDSKNTLYLQMNSLKTEDTAVYYCVRHGNFGASYVSWFAYWGQGTMVTVSSASTKGPSVFPLAPSSKSTSGGTAALGCLVKDYFPEPVTVSWNSGALTSGVHTFPAVLQSSGLYSLSSVVTVPSSSLGTQTYICNVNHKPSNTKVDKKVEPKSCDKTHTCPPCPAPEAAGGPSVFLFPPKPKDTLMISRTPEVTCVVVDVSHEDPEVKFNWYVDGVEVHNAKTKPREEQYNSTYRVVSVLTVLHQDWLNGKEYKCKVSNKALGAPIEKTISKAKGQPFRPEVHLLPPSREEMTKNQVSLTCLARGFYPKDIAVEWESNGQPENNYKTTPSRQEPSQGTTTFAVTSKLTVDKSRWQQGNVFSCSVMHEALHNHYTQKTISLSPGK
heavy 2: EIVLTQSPATLSLSPGERATLSCRASQSVSSYLAWYQQKPGQAPRLLIYDASNRATGIPARFSGSGSGTDFTLTISSLEPEDFAVYYCQQRSNWPPFTFGQGTRLEIKGGGGSGGGGSGGGGSGGGGSEVQLLESGGGLVQPGGSLRLSCAASGFTFTSYAMSWVRQAPGKGLEWVSTISGSGGGTYYTDSVKGRFTISRDNSKNTLYLQMNSLRAEDTAVYYCAQGSSIFDYWGQGTLVTVSSEPKSSDKTHTCPPCPAPEAAGGPSVFLFPPKPKDTLMISRTPEVTCVVVDVSHEDPEVKFNWYVDGVEVHNAKTKPREEQYNSTYRVVSVLTVLHQDWLNGKEYKCKVSNKALGAPIEKTISKAKGQPREPQVYTLPPPSEELALNELVTLTCLVKGFYPSDIAVEWLQGSQELPREKYLTWAPVLDSDGSFFLYSILRVAAEDWKKGDTFSCSVMHEALHNHYTQKSLDRSPGKGGGGSGGGGSGGGGSGGGGSEIVLTQSPATLSLSPGERATLSCRASQSVSSYLAWYQQKPGQAPRLLIYDASNRATGIPARFSGSGSGTDFTLTISSLEPEDFAVYYCQQRSNWPPFTFGQGTRLEIKGGGGSGGGGSGGGGSGGGGSEVQLLESGGGLVQPGGSLRLSCAASGFTFTSYAMSWVRQAPGKGLEWVSTISGSGGGTYYTDSVKGRFTISRDNSKNTLYLQMNSLRAEDTAVYYCAQGSSIFDYWGQGTLVTVSS
light: QAVVTQEPSLTVSPGGTVTLTCRSSTGAVTTSNYANWVQQKPGQAPRGLIGGTNKRAPGTPARFSGSLLGGKAALTLSGVQPEDEAEYYCALWYSNLWVFGGGTKLTVLGQPKAAPSVTLFPPSSEELQANKATLVCLISDFYPGAVTVAWKADSSPVKAGVETTTPSKQSNNKYAASSYLSLTPEQWKSHRSYSCQVTHEGSTVEKTVAPTECS
notes: also called 82H02 #3; 82H02 VL1.06x1F3.5-VH1.03
EC50 [3]: 211 nM
fold difference in ROR1 binding affinity against 82H02 TCE #4 [4]: ~3 fold
EC50 [5]: 3 nM
EC50 [6]: 4.4 nM
TDCC AUC, PBMCs: MDA-MB-231-0.2 [7]: 31300
TDCC AUC, PBMCs: MDA-MB-231-0.4 [7]: 44800
TDCC AUC, PBMCs: MDA-MB-231-0.6 [7]: 51000
TDCC AUC, PBMCs: MDA-MB-231-1.3 [7]: 61700
TDCC AUC, PBMCs: MDA-MB-231-7 [7]: 71400
TDCC EC50, PBMCs: MDA-MB-231-0.2 [7]: 0.0181 nM
TDCC EC50, PBMCs: MDA-MB-231-0.4 [7]: 0.0153 nM
TDCC EC50, PBMCs: MDA-MB-231-0.6 [7]: 0.0138 nM
TDCC EC50, PBMCs: MDA-MB-231-1.3 [7]: 0.0102 nM
TDCC EC50, PBMCs: MDA-MB-231-7 [7]: 0.00546 nM
TDCC Emax, PBMCs: MDA-MB-231-0.2 [7]: 33.1%
TDCC Emax, PBMCs: MDA-MB-231-0.4 [7]: 47.8%
TDCC Emax, PBMCs: MDA-MB-231-0.6 [7]: 53.8%
TDCC Emax, PBMCs: MDA-MB-231-1.3 [7]: 63.2%
TDCC Emax, PBMCs: MDA-MB-231-7 [7]: 72.8%
IFNγ release EC50, PBMCs: MDA-MB-231 [8]: 425 nM
Max IFNγ, PBMCs: MDA-MB-231 [8]: 881 pg/mL
TDCC EC50, PBMCs: MDA-MB-231 [9]: 148 nM
IFNγ release AUC, PBMCs: MDA-MB-231-0.2 [10]: 1.29e+06
IFNγ release AUC, PBMCs: MDA-MB-231-0.4 [10]: 1.68e+06
IFNγ release AUC, PBMCs: MDA-MB-231-0.6 [10]: 1.62e+06
IFNγ release AUC, PBMCs: MDA-MB-231-1.3 [10]: 4.32e+06
IFNγ release AUC, PBMCs: MDA-MB-231-7 [10]: 4.43e+06
IFNγ release EC50, PBMCs: MDA-MB-231-0.2 [10]: 0.202 nM
IFNγ release EC50, PBMCs: MDA-MB-231-0.4 [10]: 0.167 nM
IFNγ release EC50, PBMCs: MDA-MB-231-0.6 [10]: 0.107 nM
IFNγ release EC50, PBMCs: MDA-MB-231-1.3 [10]: 0.0308 nM
IFNγ release EC50, PBMCs: MDA-MB-231-7 [10]: 0.0271 nM
IFNγ release Emax, PBMCs: MDA-MB-231-0.2 [10]: 1830%
IFNγ release Emax, PBMCs: MDA-MB-231-0.4 [10]: 2250%
IFNγ release Emax, PBMCs: MDA-MB-231-0.6 [10]: 3160%
IFNγ release Emax, PBMCs: MDA-MB-231-1.3 [10]: 4680%
IFNγ release Emax, PBMCs: MDA-MB-231-7 [10]: 4730%
fold difference in ROR1 binding affinity against 82H02 TCE #4 [11]: ~2 fold
fold difference in apparent ROR1 binding affinity between human and mouse ROR1 [12]: ~5 fold
EC50 [13]: 1040 nM
